The pKd is −log10 of the Kd, conventionally taken in molar units.

The target of the assay is GST-tagged actin-binding domain of melanophilin (GST-Mlph-ABD), ATTO-488-labeled (UniProt Q91V27). The experiment in a line: MST; ATTO-488-labeled GST-Mlph-ABD (diluted to 40 nM in MST buffer: 50 mM Tris-HCl pH 7.8, 100 mM NaCl, 10 mM MgCl2, 0.05% Tween-20) mixed 1:1 with a 16-step two-fold dilution series of the His-tagged Myo5a tail from 40 uM in His-tag protein dialysis buffer; Monolith NT.115; three repetitions.

pKd: −log10 of the molar value.

UniProt Q91V27, sequence (Q91V27 401-590): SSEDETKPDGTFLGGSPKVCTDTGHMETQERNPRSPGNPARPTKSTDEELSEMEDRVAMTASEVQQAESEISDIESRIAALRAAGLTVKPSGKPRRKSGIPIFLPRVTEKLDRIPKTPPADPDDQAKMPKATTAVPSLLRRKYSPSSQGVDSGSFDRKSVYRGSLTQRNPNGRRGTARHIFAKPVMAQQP

In the case of “His-tagged middle tail domain of myosin-5a (His-Myo5a-MTD) (from UniProt Q99104 1-1853) (domain or fragment)”, the pKd was 6.25.

For the origin of these results see publication PMC11825297.
